Measured values from paper PMC9482650, “Quantitative fragmentomics allow affinity mapping of interactomes” (Nature Communications, 2022).
Residue numbers refer to the chain shown, from its start.

Columns and labels:
Assay in all cases: holdup assay
Design in all cases: key: below the threshold = too weak to quantify, mostly under pKd 3.1 to 4
Details in all cases: plain residues with an end cap or a label only (N-terminal biotin on a linker: ado-ado)
Inadl_4, Q8NI35 = biological target: Inadl_4, Q8NI35
MAGI3_2, Q5TCQ9 = biological target: MAGI3_2, Q5TCQ9
GOPC, Q9HD26 = biological target: GOPC, Q9HD26
Inadl_8, Q8NI35 = biological target: Inadl_8, Q8NI35
DLG2_2, Q15700 = biological target: DLG2_2, Q15700
GORASP1, Q9BQQ3 = biological target: GORASP1, Q9BQQ3
MAGI1_2, Q96QZ7 = biological target: MAGI1_2, Q96QZ7
ARHGEF12, Q9NZN5-2 = biological target: ARHGEF12, Q9NZN5-2
FRMPD3, Q5JV73 = biological target: FRMPD3, Q5JV73
LIN7B, Q9HAP6 = biological target: T1, LIN7B, Q9HAP6
T1 sequence (Q9HAP6 88-185, limits assumed, looked up): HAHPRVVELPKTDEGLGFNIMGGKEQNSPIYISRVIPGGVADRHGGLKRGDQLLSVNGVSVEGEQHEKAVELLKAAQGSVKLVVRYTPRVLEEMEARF

APBA1_2, Q02410 = biological target: T2, APBA1_2, Q02410
T2 sequence (Q02410 742-832, limits assumed, looked up): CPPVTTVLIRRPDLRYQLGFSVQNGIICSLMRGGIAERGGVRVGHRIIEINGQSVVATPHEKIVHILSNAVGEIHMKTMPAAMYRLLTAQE

DLG4_3, P78352 = biological target: DLG4_3, P78352
FRMPD2_1, Q68DX3 = biological target: FRMPD2_1, Q68DX3
MAST2, Q6P0Q8 = biological target: MAST2, Q6P0Q8
SNTA1, Q13424 = biological target: T3, SNTA1, Q13424
T3 sequence (Q13424 82-180, limits assumed, looked up): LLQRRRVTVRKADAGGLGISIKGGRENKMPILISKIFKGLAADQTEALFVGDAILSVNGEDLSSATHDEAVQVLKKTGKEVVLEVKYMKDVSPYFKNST

Inadl_10, Q8NI35 = biological target: Inadl_10, Q8NI35
NHERF3_3, Q5T2W1 = biological target: T4, NHERF3_3, Q5T2W1
T4 sequence (Q5T2W1 238-333, limits assumed, looked up): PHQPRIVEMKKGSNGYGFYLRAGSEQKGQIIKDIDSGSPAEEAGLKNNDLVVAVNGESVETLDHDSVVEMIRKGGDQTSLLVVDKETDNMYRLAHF

GRIP2_3, Q9C0E4 = biological target: GRIP2_3, Q9C0E4
MAGI2_3, Q86UL8 = biological target: MAGI2_3, Q86UL8
FRMPD2_2, Q68DX3 = biological target: FRMPD2_2, Q68DX3
LIN7C, Q9NUP9 = biological target: T5, LIN7C, Q9NUP9
T5 sequence (Q9NUP9 88-185, limits assumed, looked up): T1 sequence (Q9HAP6 88-185, limits assumed, looked up) with A2S, D13E, V35I, V40I, Q65H, S79K, R89K, A96S

PARD3_3, Q8TEW0 = biological target: PARD3_3, Q8TEW0
NHERF4_4, Q86UT5 = biological target: NHERF4_4, Q86UT5
DLG3_3, Q92796 = biological target: T6, DLG3_3, Q92796
T6 sequence (Q92796 374-475, limits assumed, looked up): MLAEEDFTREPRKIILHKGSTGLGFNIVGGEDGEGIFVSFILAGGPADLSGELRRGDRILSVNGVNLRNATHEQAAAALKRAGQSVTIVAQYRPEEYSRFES

DLG1_1, Q12959 = biological target: DLG1_1, Q12959
Inadl_1, Q8NI35 = biological target: Inadl_1, Q8NI35
RHPN1, Q8TCX5 = biological target: T7, RHPN1, Q8TCX5
T7 sequence (Q8TCX5 508-602, limits assumed, looked up): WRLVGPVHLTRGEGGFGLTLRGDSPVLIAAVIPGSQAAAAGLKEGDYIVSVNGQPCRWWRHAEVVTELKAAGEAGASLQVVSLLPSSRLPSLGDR

LNX1_3, Q8TBB1 = biological target: LNX1_3, Q8TBB1
LNX1_2, Q8TBB1 = biological target: LNX1_2, Q8TBB1
HTRA3, P83110 = biological target: T8, HTRA3, P83110
T8 sequence (P83110 354-453, limits assumed, looked up): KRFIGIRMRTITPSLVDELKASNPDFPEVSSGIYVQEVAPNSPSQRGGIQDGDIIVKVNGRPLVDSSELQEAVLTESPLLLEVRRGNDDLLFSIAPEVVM

Inadl_6, Q8NI35 = biological target: Inadl_6, Q8NI35
Chain of Inadl_6, Q8NI35 (Q8NI35 1058-1167): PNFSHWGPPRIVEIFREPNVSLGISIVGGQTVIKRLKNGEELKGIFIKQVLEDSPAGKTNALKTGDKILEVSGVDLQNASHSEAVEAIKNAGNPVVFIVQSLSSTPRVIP

Chain of ARHGEF12, Q9NZN5-2 (Q9NZN5 other isoform, or with tags, fused parts or gaps): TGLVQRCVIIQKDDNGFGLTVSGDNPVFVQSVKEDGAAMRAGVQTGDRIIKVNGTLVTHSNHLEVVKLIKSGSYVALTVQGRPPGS
Chain of Inadl_8, Q8NI35 (Q8NI35 1425-1530): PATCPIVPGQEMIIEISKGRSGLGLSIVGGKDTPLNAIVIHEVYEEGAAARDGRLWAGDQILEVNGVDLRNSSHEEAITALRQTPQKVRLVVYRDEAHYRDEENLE
Chain of MAGI1_2, Q96QZ7 (Q96QZ7 456-580): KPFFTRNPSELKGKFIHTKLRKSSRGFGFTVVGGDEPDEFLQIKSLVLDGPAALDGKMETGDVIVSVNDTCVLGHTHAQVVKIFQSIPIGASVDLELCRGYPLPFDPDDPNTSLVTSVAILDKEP
Chain of LNX1_3, Q8TBB1 (Q8TBB1 500-596): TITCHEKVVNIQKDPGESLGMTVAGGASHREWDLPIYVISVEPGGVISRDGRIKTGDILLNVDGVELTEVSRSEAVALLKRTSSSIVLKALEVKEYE
Chain of Inadl_10, Q8NI35 (Q8NI35 1673-1763): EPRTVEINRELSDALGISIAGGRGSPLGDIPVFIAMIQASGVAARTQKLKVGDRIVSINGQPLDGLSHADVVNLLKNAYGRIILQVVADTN
Chain of NHERF4_4, Q86UT5 (Q86UT5 464-550): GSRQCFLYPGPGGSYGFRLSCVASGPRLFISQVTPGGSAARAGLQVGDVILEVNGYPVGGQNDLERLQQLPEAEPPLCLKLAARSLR
Chain of FRMPD3, Q5JV73 (Q5JV73 12-100): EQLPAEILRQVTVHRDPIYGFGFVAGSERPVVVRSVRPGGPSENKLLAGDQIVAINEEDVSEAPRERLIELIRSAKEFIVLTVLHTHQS
Chain of Inadl_4, Q8NI35 (Q8NI35 547-651): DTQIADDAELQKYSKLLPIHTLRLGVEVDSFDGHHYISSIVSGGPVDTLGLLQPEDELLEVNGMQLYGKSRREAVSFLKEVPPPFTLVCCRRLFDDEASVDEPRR
Chain of Inadl_1, Q8NI35 (Q8NI35 113-229): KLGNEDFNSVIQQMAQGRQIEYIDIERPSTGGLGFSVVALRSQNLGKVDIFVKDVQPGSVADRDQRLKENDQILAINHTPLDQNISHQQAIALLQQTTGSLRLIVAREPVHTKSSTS
Chain of DLG4_3, P78352 (P78352 306-403): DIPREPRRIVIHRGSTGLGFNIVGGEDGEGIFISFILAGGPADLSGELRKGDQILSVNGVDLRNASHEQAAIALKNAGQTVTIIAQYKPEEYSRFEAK
Chain of MAGI3_2, Q5TCQ9 (Q5TCQ9 398-503): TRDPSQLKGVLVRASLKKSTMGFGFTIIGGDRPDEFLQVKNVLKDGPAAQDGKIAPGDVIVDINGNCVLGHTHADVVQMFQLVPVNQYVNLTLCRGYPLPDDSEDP
Chain of MAST2, Q6P0Q8 (Q6P0Q8 1099-1202): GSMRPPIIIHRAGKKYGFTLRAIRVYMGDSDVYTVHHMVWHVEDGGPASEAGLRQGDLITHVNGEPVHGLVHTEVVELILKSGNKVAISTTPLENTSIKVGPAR
Chain of FRMPD2_2, Q68DX3 (Q68DX3 944-1038): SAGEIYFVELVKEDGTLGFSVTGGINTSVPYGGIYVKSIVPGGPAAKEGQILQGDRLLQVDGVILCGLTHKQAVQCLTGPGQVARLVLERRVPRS
Chain of GORASP1, Q9BQQ3 (Q9BQQ3 1-208): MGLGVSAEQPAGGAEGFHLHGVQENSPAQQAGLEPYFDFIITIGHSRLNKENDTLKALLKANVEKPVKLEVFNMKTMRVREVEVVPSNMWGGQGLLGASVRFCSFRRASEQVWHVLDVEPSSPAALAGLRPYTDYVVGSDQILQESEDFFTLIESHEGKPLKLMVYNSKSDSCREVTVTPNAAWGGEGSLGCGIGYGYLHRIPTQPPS
Chain of PARD3_3, Q8TEW0 (Q8TEW0 582-685): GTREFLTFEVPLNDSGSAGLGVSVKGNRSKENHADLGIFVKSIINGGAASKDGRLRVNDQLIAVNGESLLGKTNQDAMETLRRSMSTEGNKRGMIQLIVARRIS
Chain of LNX1_2, Q8TBB1 (Q8TBB1 371-470): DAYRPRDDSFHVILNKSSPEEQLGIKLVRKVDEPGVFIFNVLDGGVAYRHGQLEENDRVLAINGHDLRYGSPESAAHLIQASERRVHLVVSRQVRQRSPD
Chain of FRMPD2_1, Q68DX3 (Q68DX3 770-861): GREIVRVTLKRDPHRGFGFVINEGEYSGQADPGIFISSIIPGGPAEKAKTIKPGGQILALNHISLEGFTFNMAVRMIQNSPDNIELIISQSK
Chain of MAGI2_3, Q86UL8 (Q86UL8 600-682): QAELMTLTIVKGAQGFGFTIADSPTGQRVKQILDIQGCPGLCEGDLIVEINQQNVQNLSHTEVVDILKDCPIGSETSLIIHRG
Chain of DLG2_2, Q15700 (Q15700 189-283): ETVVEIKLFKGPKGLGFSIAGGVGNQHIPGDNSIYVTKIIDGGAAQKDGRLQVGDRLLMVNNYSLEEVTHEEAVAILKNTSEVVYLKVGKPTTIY
Chain of GRIP2_3, Q9C0E4 (Q9C0E4 238-339): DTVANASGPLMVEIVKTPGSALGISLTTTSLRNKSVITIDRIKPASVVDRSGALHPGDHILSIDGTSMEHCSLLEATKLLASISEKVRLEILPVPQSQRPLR

Binder: QKNKDREYYV [NRXN3, Q9HDB5]
- pKd (Inadl_4, Q8NI35): below the threshold
- pKd (MAGI3_2, Q5TCQ9): 4.75
- pKd (GOPC, Q9HD26): below the threshold
- pKd (Inadl_8, Q8NI35): 3.48
- pKd (DLG2_2, Q15700): below the threshold
- pKd (GORASP1, Q9BQQ3): 4.33
- pKd (MAGI1_2, Q96QZ7): below the threshold
- pKd (ARHGEF12, Q9NZN5-2): 3.65
- pKd (FRMPD3, Q5JV73): 4.03
- pKd (LIN7B, Q9HAP6): below the threshold
- pKd (APBA1_2, Q02410): 3.99
- pKd (DLG4_3, P78352): below the threshold
- pKd (FRMPD2_1, Q68DX3): 3.7
- pKd (MAST2, Q6P0Q8): 3.77
- pKd (SNTA1, Q13424): 3.8
- pKd (Inadl_10, Q8NI35): below the threshold
- pKd (NHERF3_3, Q5T2W1): below the threshold
- pKd (GRIP2_3, Q9C0E4): below the threshold
- pKd (MAGI2_3, Q86UL8): below the threshold
- pKd (FRMPD2_2, Q68DX3): 3.78
- pKd (LIN7C, Q9NUP9): 3.59
- pKd (PARD3_3, Q8TEW0): 4.59
- pKd (NHERF4_4, Q86UT5): below the threshold
- pKd (DLG3_3, Q92796): below the threshold
- pKd (DLG1_1, Q12959): below the threshold
- pKd (Inadl_1, Q8NI35): 3.69
- pKd (RHPN1, Q8TCX5): below the threshold
- pKd (LNX1_3, Q8TBB1): 4.09
- pKd (LNX1_2, Q8TBB1): 4.08
- pKd (HTRA3, P83110): 4.84
- pKd (Inadl_6, Q8NI35): below the threshold

Binder: THREVKFTSL [CD46, P15529]
- pKd (Inadl_4, Q8NI35): below the threshold
- pKd (MAGI3_2, Q5TCQ9): below the threshold
- pKd (GOPC, Q9HD26): 4.05
- pKd (Inadl_8, Q8NI35): 3.53
- pKd (DLG2_2, Q15700): 3.57
- pKd (GORASP1, Q9BQQ3): below the threshold
- pKd (MAGI1_2, Q96QZ7): 3.81
- pKd (ARHGEF12, Q9NZN5-2): 5.37
- pKd (FRMPD3, Q5JV73): below the threshold
- pKd (LIN7B, Q9HAP6): 3.88
- pKd (APBA1_2, Q02410): 3.64
- pKd (DLG4_3, P78352): 4.3
- pKd (FRMPD2_1, Q68DX3): below the threshold
- pKd (MAST2, Q6P0Q8): 5.57
- pKd (SNTA1, Q13424): 4.17
- pKd (Inadl_10, Q8NI35): 3.49
- pKd (NHERF3_3, Q5T2W1): below the threshold
- pKd (GRIP2_3, Q9C0E4): below the threshold
- pKd (MAGI2_3, Q86UL8): below the threshold
- pKd (FRMPD2_2, Q68DX3): below the threshold
- pKd (LIN7C, Q9NUP9): below the threshold
- pKd (PARD3_3, Q8TEW0): below the threshold
- pKd (NHERF4_4, Q86UT5): below the threshold
- pKd (DLG3_3, Q92796): 4.21
- pKd (DLG1_1, Q12959): below the threshold
- pKd (Inadl_1, Q8NI35): below the threshold
- pKd (RHPN1, Q8TCX5): 4.48
- pKd (LNX1_3, Q8TBB1): below the threshold
- pKd (LNX1_2, Q8TBB1): below the threshold
- pKd (HTRA3, P83110): below the threshold
- pKd (Inadl_6, Q8NI35): 3.7

Binder: PSDSVGKDVF [EGLN1, Q9GZT9]
- pKd (Inadl_4, Q8NI35): below the threshold
- pKd (MAGI3_2, Q5TCQ9): below the threshold
- pKd (GOPC, Q9HD26): below the threshold
- pKd (Inadl_8, Q8NI35): below the threshold
- pKd (DLG2_2, Q15700): below the threshold
- pKd (GORASP1, Q9BQQ3): below the threshold
- pKd (MAGI1_2, Q96QZ7): below the threshold
- pKd (ARHGEF12, Q9NZN5-2): below the threshold
- pKd (FRMPD3, Q5JV73): below the threshold
- pKd (LIN7B, Q9HAP6): 3.55
- pKd (APBA1_2, Q02410): below the threshold
- pKd (DLG4_3, P78352): below the threshold
- pKd (FRMPD2_1, Q68DX3): below the threshold
- pKd (MAST2, Q6P0Q8): below the threshold
- pKd (SNTA1, Q13424): below the threshold
- pKd (Inadl_10, Q8NI35): below the threshold
- pKd (NHERF3_3, Q5T2W1): below the threshold
- pKd (GRIP2_3, Q9C0E4): below the threshold
- pKd (MAGI2_3, Q86UL8): below the threshold
- pKd (FRMPD2_2, Q68DX3): below the threshold
- pKd (LIN7C, Q9NUP9): below the threshold
- pKd (PARD3_3, Q8TEW0): below the threshold
- pKd (NHERF4_4, Q86UT5): below the threshold
- pKd (DLG3_3, Q92796): below the threshold
- pKd (DLG1_1, Q12959): below the threshold
- pKd (Inadl_1, Q8NI35): below the threshold
- pKd (RHPN1, Q8TCX5): below the threshold
- pKd (LNX1_3, Q8TBB1): below the threshold
- pKd (LNX1_2, Q8TBB1): below the threshold
- pKd (HTRA3, P83110): below the threshold
- pKd (Inadl_6, Q8NI35): below the threshold
